Values joined by “and” are separate entries in the source; they are usually repeats but may differ in a detail not shown here. Equal entries are not always repeated.
Key:
[1] = target: FliS (flagellar export chaperone FliS of Helicobacter pylori), GST tag removed (Helicobacter pylori (strain 26695)); assay: MST; labelled FliS or FliS-FlaBc (40 nM) mixed with HP1076 (6.2 μM to 0.189 nM, or 3.83 mM to 117 μM); 20 mM Tris pH 7.5, 150 mM NaCl, 2 mM DTT; 21.5°C
[2] = target: FliS-FlaBc complex (Helicobacter pylori (strain 26695) | Helicobacter pylori) (UniProt Q07911); assay: as above
[3] = target: GST-FliS (Helicobacter pylori (strain 26695)); assay: pull-down; competitive: the same experiment as a5, for purified HP1076 added at molar ratios to GST-FliS of 0, 0.5:1, 5:1 and 50:1 in the presence of H. pylori lysate; read-out is the flagellin band

B1: His-HP1076 (natural protein)
chain: MDILKTLQKHLGDVETSDFTTNAIEKSQQIAKFSRDMKNINESVGALQVLQIACKKLFNKSMGLEDKDALQASIIKQELREIVENCQFLASPLFDTQLNIAINDEIFSMIVVNPLDLLENVGEFQAYLEEKLNEIKELLGYLSESLSNPKAFMPSFSNQSLKDLLSDNLRA
Kd [1]: 0.015 µM | Kd [2]: 1600 µM | binding of flagellin (FlaA/FlaB band) to GST-FliS left when saturated by HP1076 (fraction of the binding without HP1076) [3]: 0.2 and 0.25
